Target: T1, Myc-TPL-2 MEK kinase activity (Rattus norvegicus, UniProt Q63562)
T1 construct: made in house; host or cells: HEK 293 cells, transient transfection, anti-Myc immunoprecipitation
Assay: In vitro MEK kinase assay with GST-MEK1(K207A) substrate, Myc-TPL-2
Format: biochemical
Conditions: equivalent molar concentrations to p105498-969
Protocol: Myc-TPL-2 or Myc-TPL-2ΔC were isolated by immunoprecipitation from lysates of transiently transfected 293 cells, as described above. immunoprecipitates were washed four times in Buffer A, followed by two washes in kinase buffer (50 mM Tris-pH7.5, 150 mM NaCl, 5 mM β-glycerophosphate, 2 mM dithiothreitol, 0.1 mM sodium vanadate, 10 mM MgCl2, 1 mM EGTA, 0.01% Brij35). Beads were then resuspended in 50μl of kinase buffer plus the indicated amounts of recombinant p105 protein and incubated at 4° C. for 30 min. […] The supernatant was removed, mixed with an equal volume of 2×sample buffer, Western blotted after 8%-acrylamide SDS-PAGE and probed with anti-phospho-MEK-½ antibody. Immunoprecipitated Myc-TPL-2 or Myc-TPL-2ΔC was eluted with Laemlli sample buffer from the remaining anti-Myc mAb beads and quantified by Western blotting.
Only a small fraction of over-expressed Myc-TPL-2 is associated with p105, presumably due to titration of endogenous p105 protein. The effect of p105 binding on Myc-TPL-2 MEK kinase activity was investigated by incubation of TPL-2 imnmunoprecipitates with recombinant p105498-969 protein prior to in vitro kinase assay. MEK phosphorylation was assayed by Western blotting with anti-phospho-MEK-½ antibody. Control experiments confirmed that p105498-969 protein bound to TPL-2 in vitro. […]

T1 sequence (Q63562 whole entry): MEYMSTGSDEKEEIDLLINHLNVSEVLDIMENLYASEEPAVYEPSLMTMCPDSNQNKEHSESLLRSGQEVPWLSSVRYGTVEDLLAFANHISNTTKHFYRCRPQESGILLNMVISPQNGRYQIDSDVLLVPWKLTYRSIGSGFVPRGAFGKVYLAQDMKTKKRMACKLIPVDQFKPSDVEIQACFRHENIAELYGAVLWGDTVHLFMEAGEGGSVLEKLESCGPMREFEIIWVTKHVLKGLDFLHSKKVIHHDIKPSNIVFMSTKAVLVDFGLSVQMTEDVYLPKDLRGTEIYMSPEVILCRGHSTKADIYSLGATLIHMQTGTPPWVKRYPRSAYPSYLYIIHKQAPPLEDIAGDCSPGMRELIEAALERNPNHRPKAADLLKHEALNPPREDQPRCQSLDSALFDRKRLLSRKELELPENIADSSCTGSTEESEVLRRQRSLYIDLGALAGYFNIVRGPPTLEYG

B1: p105498-969(ΔDD): recombinant p105 498-969 protein which lacks the p105 death domain (protein)
chain: QDNLFLEKAMQLAKRHANALFDYAVTGDVKMLLAVQRHLTAVQDENGDSVLHLAIIHLHSQLVRDLLEVTSGLISDDIINMRNDLYQTPLHLAVITKQEDVVEDLLRAGADLSLLDRLGNSVLHLAAKEGHDKVLSILLKHKKAALLLDHPNGDGLNAIHLAMMSNSLPCLLLLVAAGADVNAQEQKSGRTALHLAVEHDNISLAGCLLLEGDAHVDSTTYDGTTPLHIAAGRGSTRLAALLKAAGADPLVENFEPLYDLDDSWENAGEDEGVVPGTTPLDMATSWQVFDILNGKPYEPEFTSDDSPVKTTSQAHSLPLSPASTRQQIDELRDSDSVCDSGVETSFRKLSFTESLTSGASLLTLNKMPHDYGQEGPLEGKI
  effect on Myc-TPL-2 MEK kinase activity: did not affect
